Test results published in PMC6126843, “A dual-specific macrophage colony-stimulating factor antagonist of c-FMS and αvβ3 integrin for osteoporosis therapy” (PLoS Biology, 2018).
Each block holds one molecule with its values, some of them ahead of it.

What was measured:
[1] = target: c-FMS (Homo sapiens) (UniProt P07333); settings: cited from earlier work
[2] = target: αvβ3 integrin (Homo sapiens) (UniProt P06756); settings: cited from earlier work
[3] = target: M-CSFRGD variant 4.22, purified soluble protein (human) (UniProt P09603); assay: SPR; ProteOn XPR36; M-CSF variants immobilised by amine coupling; c-FMS or αvβ3 integrin flowed at 0, 12.5, 25, 50, 100 and 200 nM, 50 μl/min, 25 °C, PBS + 0.005% Tween; KD from the equilibrium binding phase; apparent (S9 Fig legend)
[4] = target: M-CSFRGD variant 4.24, purified soluble protein (human) (UniProt P09603); assay: as above
[5] = target: M-CSFRGD variant 5.6, purified soluble protein (human) (UniProt P09603); assay: as above
[6] = target: M-CSF_(αvβ3), monospecific M-CSF that can bind αvβ3 integrin (human) (UniProt P09603); assay: as above
[7] = target: M-CSF_(c-FMS), monospecific M-CSF that can bind only c-FMS (human) (UniProt P09603); assay: as above
[8] = target: T1, soluble Fc-conjugated human c-FMS (human, UniProt P07333 20-517); assay: flow cytometry on cells; yeast surface display: yeast displaying M-CSF incubated with soluble c-FMS-Fc (0.5–2000 nM for the titration, 100 nM for the libraries, 50 nM for single clones) in PBS + 1% BSA, 1 h at room temperature; detected with goat anti-human Fc FITC; apparent; settings: one partner purified
T1 construct: c-FMS (M-CSF receptor, CSF-1R), human, soluble form; Detected with goat anti-human Fc FITC; also called c-FMS-Fc; soluble c-FMS; source: bought: R&D systems
T1 sequence (P07333 20-517): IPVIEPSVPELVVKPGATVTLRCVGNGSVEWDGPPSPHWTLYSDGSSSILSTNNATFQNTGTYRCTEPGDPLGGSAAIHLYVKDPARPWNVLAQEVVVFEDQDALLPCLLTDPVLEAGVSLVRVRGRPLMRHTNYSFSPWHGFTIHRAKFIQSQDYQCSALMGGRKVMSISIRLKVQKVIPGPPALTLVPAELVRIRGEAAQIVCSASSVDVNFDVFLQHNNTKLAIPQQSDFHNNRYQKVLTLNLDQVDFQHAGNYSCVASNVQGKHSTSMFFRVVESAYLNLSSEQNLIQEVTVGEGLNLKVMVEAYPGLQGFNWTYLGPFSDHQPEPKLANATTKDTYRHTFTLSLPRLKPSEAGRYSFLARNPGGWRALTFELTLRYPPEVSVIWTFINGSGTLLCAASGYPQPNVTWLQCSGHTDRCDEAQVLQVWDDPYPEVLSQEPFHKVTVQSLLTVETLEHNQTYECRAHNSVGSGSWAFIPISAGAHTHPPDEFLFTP

αvβ3 integrin (Homo sapiens), sequence (P06756 31-992, chain 1 of 2): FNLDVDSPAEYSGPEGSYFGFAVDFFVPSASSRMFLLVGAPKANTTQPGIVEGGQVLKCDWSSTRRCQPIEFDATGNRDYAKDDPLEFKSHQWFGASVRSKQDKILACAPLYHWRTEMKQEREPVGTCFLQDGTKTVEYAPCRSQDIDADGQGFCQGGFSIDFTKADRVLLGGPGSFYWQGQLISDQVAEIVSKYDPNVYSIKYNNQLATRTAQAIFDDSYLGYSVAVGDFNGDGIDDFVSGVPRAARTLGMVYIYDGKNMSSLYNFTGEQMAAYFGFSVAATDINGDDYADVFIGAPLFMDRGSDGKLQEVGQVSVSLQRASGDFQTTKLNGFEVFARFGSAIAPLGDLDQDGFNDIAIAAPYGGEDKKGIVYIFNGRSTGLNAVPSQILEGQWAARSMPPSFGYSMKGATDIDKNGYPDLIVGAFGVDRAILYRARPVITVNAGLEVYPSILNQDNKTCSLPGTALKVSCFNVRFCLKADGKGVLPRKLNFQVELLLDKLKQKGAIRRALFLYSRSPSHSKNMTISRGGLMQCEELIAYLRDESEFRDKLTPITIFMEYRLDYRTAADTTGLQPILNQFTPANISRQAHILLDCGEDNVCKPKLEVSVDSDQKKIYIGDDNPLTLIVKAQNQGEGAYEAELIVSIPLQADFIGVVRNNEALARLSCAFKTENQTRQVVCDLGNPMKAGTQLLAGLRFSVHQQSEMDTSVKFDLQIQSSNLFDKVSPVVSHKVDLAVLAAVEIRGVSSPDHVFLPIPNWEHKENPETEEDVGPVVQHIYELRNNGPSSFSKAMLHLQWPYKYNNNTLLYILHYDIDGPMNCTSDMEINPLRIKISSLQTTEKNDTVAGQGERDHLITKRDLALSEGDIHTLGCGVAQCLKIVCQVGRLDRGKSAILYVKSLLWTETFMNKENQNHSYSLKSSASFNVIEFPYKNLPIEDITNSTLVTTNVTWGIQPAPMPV
αvβ3 integrin (Homo sapiens), sequence (P05106 27-718, chain 2 of 2, further chain): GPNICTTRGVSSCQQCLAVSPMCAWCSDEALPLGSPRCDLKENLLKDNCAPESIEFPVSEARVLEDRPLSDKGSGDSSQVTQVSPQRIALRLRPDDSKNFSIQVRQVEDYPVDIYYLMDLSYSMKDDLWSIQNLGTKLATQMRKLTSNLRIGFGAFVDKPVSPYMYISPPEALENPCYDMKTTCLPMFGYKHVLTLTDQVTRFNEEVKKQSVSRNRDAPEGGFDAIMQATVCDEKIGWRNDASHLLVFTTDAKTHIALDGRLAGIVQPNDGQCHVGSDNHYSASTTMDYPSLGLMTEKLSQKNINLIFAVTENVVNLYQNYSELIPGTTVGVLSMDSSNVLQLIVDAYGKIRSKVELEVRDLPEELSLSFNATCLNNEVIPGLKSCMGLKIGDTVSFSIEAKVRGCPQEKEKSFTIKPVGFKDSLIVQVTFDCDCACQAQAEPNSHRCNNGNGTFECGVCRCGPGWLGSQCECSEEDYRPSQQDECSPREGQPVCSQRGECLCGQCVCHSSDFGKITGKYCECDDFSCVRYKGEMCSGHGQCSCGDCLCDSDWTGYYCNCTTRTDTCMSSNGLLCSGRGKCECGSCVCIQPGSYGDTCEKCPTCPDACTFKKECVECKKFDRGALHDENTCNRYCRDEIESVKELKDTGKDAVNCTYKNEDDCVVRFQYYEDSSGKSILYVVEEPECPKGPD
c-FMS (Homo sapiens), sequence (P07333 20-517): as the sequence (P07333 20-517) above

Molecule: M-CSF (from UniProt P09603)
- Kd [1]: 13.6 nM

Molecule: vitronectin (from UniProt P04004)
- Kd [2]: 40.7 nM

Continued, values first:

- Kd [3]: 199 nM
- Kd [4]: 108 nM
- Kd [5]: 245 nM
- Kd [6]: 231 nM
Molecule: soluble human αvβ3 integrin (from UniProt P06756 31-1048; P05106 27-718) (complex)

- Kd [3]: 152 nM
- Kd [4]: 219 nM
- Kd [7]: 195 nM
- Kd [5]: 96 nM
Molecule: human c-FMS soluble protein (from UniProt P07333 20-517) (receptor)

- Kd [8]: 20 nM
B1: M-CSF_(C31S), displayed on the yeast surface (ligand)
chain: EEVSEYCSHMIGSGHLQSLQRLIDSQMETSSQITFEFVDQEQLKDPVCYLKKAFLLVQDIMEDTMRFRDNTPNAIAIVQLQELSLRLKSCFTKDYEEHDKACVRTFYETPLQLLEKVKNVFNETKNLLDKDWNIFSKNCNNSFAECSSQ
modifications: Yeast-displayed Aga fusion with c-myc tag (carrier left out). Mature numbering +32 = precursor. Limits follow the M-CSF part of PDB 4WRL entity 2 (mature 1-149); the paper's own limits are not …
